In patent US20180258163A1 (Chugai, published 2018):

Assays:
human IgE [1] = molecular target: T1, human IgE (human, UniProt P01854-1 1-428); assay: SPR, IgE on chip, Ab analyte, pH 7.4, 37C
T1 construct: whole IgE; also called hIgE
Method: (§1) Affinities of Ab2 and Ab3 for human IgE at pH 7.4 and pH 5.8 were evaluated as follows. The binding activity (dissociation constant KD (M)) of anti-hIgE antibodies toward hIgE were evaluated using BIACORE T200 (GE Healthcare). Measurements were carried out using the following two buffers as the running buffers: (1) 1.2 mM CaCl₂/0.05% tween 20, 20 mM ACES, 150 mM NaCl, pH 7.4; and (2) 1.2 mM CaCl₂/0.05% tween 20, 20 mM ACES, 150 mM NaCl, pH 5.8.
(§2) Then, to regenerate the sensor chip, 10 mM glycine-HCl at pH 1.5 was injected. All measurements were carried out at 37° C. Association rate constants ka (1/Ms) and dissociation rate constants kd (1/s) were calculated by analyzing the measurement results by curve-fitting using the BIACORE T200 Evaluation Software (GE Healthcare), and dissociation constants KD (M) were calculated based on those values.

human IgE [2] = molecular target: T1, human IgE; assay: SPR, IgE on chip, Ab analyte, pH 5.8, 37C
Method: as §1, §2

soluble human FcγRIIb = molecular target: T2, soluble human FcγRIIb (human, UniProt P31994 43-217, limits assumed); assay: SPR, Ab-IgE complex over captured hFcγRIIb, pH 7.4, 25C
T2 construct: soluble His-tagged form; also called hFcγRIIb
T2 sequence (looked up): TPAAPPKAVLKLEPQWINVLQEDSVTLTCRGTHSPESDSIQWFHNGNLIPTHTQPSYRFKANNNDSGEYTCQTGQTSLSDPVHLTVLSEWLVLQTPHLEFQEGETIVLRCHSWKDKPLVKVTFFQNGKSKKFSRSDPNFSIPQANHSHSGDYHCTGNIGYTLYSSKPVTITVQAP
Method: Regarding the produced Fc region variant-containing antibodies, binding assays between soluble human FcγRIIb and antigen-antibody complexes were performed using BIACORE T200 (GE Healthcare). Soluble human FcγRIIb (NCBI accession NM_004001.3) was produced in the form of a His-tagged molecule by a method known in the art. An appropriate amount of an anti-His antibody was fixed onto Sensor chip CM5 (GE Healthcare) by the amine coupling method using a His capture kit (GE Healthcare) to capture human FcγRIIb. Next, an antibody-antigen complex and a running buffer (as a reference solution) were injected, and interaction was allowed to take place with the human FcγRIIb captured onto the sensor chip. 20 mM N-(2-Acetamido)-2-aminoethanesulfonic acid, 150 mM NaCl, 1.2 mM CaCl₂, and 0.05% (w/v) Tween 20 at pH 7.4 was used as the running buffer, and the respective buffer was also used to dilute the soluble human FcγRIIb. To regenerate the sensor chip, 10 mM glycine-HCl at pH 1.5 was used. All measurements were carried out at 25° C. Analyses were performed based on binding (RU) calculated from sensorgrams obtained by the measurements, and relative values when the binding amount of Ab1H/Ab1L (original Ab1) was defined as 1.00 are shown. To calculate the parameters, the BIACORE T100 Evaluation Software (GE Healthcare) was used.

T1 sequence (P01854 other isoform, or with tags, fused parts or gaps): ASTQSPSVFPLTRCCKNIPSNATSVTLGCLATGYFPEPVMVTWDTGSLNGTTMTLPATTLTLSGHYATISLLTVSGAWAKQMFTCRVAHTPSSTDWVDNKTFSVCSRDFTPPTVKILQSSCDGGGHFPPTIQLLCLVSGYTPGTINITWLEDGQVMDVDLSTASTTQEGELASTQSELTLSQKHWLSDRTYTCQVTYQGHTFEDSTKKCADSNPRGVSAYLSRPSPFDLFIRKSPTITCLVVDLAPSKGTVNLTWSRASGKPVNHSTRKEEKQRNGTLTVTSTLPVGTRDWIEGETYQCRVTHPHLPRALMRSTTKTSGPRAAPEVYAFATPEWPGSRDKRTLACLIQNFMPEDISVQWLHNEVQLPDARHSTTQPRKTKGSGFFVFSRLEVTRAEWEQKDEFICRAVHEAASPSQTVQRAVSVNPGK

B1: Ab2 (antibody, human IgG1, kappa, V domains shown)
VH: QSVEESGGRLVTPGTPLTLTCTVSGFSLSSFNMDWVRQAPGEGLEWIGAVSTGGSAYYAKWAKGRFTISKTSTAVDLKITSPTTEDTATYFCARVDSSGWGYFDLWGQGTLVTVSS
VL: AIEMTQTPFSVSAAVGGTVTINCQASENIYSSLAWYQQKPGQPPKLLIYYASNLASGVSSRFKGSGSGTDFTLTISDLECADAATYYCQSYYFISSTDFNAFGGGTEVVVKR
A Kd (human IgE [1]) of 0.0015 µM, a koff (human IgE [1]) of 0.0045 s⁻¹ and a kon (human IgE [1]) of 2.9e+06 M⁻¹ s⁻¹ were found for B1 in this work. The Kd (human IgE [2]) was 0.097 µM, the koff (human IgE [2]) was 0.053 s⁻¹ and the kon (human IgE [2]) was 550000 M⁻¹ s⁻¹.

B2: Ab3 (antibody, human IgG1, kappa, V domains shown)
VH: QSLEESGGDLVKPGASLTLTCTTSVFDLSSYYWICWVRQAPGKGLEWIACVYATSGSTDYATWAKGRLTISKASSTTVTLQMTSLTAADTATYFCARGGIYGGDGFNLWGPGTLVTVSS
VL: AFELTQTPASVEAAVGGTVTINCQASESISNWLAWYQQKPGQPPKLLIYRASTLTSGVPSRFKGSGSGTEFTLTISDLECADAATYYCQSYDPSIIDGFAFGGGTEVVVKR
A Kd (human IgE [1]) of 0.0049 µM, a koff (human IgE [1]) of 0.0079 s⁻¹ and a kon (human IgE [1]) of 1.6e+06 M⁻¹ s⁻¹ were found for B2 in this work. The Kd (human IgE [2]) was 0.23 µM, the koff (human IgE [2]) was 0.033 s⁻¹ and the kon (human IgE [2]) was 140000 M⁻¹ s⁻¹.

B3: Ab1H-P1481m/Ab1L (antibody, human IgG1, kappa, name in EU numbering)
heavy: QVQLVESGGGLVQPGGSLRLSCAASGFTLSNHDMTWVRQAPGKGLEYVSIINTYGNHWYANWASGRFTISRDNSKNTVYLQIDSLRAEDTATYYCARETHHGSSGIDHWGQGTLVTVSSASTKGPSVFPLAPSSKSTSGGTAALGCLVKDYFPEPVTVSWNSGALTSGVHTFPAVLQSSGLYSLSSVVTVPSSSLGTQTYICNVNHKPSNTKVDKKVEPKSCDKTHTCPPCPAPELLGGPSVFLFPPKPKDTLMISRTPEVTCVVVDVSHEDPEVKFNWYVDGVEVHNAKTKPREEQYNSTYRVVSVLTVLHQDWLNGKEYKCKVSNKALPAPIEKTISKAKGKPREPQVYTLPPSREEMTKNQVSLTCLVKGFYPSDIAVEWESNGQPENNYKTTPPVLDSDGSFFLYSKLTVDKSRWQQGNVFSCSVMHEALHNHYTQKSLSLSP
light: DIQMTQSPSSVSASVGDRVTITCQASESIYSGLAWYQQKPGQPPKLLIYDHSTLASGVPSRFSGSGSGTEYALTISSLQPEDFATYYCQHADYAHHSDNVFGGGTKVEIKRTVAAPSVFIFPPSDEQLKSGTASVVCLLNNFYPREAKVQWKVDNALQSGNSQESVTEQDSKDSTYSLSSTLTLSKADYEKHKVYACEVTHQGLSSPVTKSFNRGEC
For B3, the “BIACORE fold (relative binding, original Ab1=1.00)” value (soluble human FcγRIIb) was 1.08 fold.

B4: Ab1H-P1653m/Ab1L (antibody, human IgG1, kappa, name in EU numbering)
heavy: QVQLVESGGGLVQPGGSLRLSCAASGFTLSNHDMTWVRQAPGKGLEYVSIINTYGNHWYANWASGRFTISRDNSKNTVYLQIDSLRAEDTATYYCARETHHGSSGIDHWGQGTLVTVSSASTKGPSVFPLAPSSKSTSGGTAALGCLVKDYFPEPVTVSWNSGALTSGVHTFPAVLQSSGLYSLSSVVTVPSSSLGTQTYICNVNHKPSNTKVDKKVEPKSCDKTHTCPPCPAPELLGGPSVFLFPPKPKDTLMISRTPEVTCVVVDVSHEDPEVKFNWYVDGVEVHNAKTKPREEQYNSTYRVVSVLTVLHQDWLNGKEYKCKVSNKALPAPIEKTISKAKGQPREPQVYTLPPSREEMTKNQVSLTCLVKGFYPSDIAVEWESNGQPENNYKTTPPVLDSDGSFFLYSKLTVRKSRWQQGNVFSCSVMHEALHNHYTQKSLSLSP
light: B3 light
notes: copies: 2 + 2
With B4 the “BIACORE fold (relative binding, original Ab1=1.00)” value (soluble human FcγRIIb) was 0.79 fold.

B5: Ab1H-P1512m/Ab1L (antibody, human IgG1, kappa, name in EU numbering)
heavy: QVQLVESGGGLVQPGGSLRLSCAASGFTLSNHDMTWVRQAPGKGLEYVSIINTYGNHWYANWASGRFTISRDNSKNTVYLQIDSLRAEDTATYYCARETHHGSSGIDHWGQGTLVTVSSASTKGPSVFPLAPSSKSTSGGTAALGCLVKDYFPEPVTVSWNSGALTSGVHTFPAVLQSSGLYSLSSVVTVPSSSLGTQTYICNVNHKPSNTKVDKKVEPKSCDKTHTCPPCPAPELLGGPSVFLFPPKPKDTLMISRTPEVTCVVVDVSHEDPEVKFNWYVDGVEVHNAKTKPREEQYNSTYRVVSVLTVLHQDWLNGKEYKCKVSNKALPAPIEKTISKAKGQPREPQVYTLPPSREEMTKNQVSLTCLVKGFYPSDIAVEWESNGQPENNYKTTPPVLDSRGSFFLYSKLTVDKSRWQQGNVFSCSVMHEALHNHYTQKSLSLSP
light: B3 light
notes: copies: 2 + 2
B5 was tested, and the “BIACORE fold (relative binding, original Ab1=1.00)” value (soluble human FcγRIIb) was 1.24 fold.

B6: Ab1H-P1513m/Ab1L (antibody, human IgG1, kappa, name in EU numbering)
heavy: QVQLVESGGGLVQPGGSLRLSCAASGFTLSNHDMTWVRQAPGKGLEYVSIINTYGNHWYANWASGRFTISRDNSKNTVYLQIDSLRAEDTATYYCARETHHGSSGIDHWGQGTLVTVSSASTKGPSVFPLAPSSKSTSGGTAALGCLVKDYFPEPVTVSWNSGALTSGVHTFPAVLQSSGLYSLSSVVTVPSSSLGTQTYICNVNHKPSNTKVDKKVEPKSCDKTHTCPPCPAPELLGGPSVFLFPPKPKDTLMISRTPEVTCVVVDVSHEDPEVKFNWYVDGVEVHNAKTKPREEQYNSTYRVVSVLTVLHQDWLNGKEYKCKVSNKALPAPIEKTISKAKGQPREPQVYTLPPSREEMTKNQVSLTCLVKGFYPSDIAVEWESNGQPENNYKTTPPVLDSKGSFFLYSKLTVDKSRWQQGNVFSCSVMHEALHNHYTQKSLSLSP
light: B3 light
notes: copies: 2 + 2
B6 was tested, and the “BIACORE fold (relative binding, original Ab1=1.00)” value (soluble human FcγRIIb) was 1.21 fold.

B7: Ab1H-P1515m/Ab1L (antibody, human IgG1, kappa, name in EU numbering)
heavy: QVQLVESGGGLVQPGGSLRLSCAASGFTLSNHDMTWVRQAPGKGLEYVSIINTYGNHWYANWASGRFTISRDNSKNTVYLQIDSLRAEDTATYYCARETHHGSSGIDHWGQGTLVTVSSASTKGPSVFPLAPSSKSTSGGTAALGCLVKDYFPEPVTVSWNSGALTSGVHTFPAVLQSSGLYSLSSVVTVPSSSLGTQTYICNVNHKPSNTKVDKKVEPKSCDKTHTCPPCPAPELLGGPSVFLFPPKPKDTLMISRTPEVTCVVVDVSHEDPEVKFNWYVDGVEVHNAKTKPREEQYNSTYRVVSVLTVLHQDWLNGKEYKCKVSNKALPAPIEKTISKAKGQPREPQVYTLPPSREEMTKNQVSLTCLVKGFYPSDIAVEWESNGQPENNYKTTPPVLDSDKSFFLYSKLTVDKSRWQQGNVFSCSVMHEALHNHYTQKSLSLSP
light: B3 light
notes: copies: 2 + 2
B7 was tested, and the “BIACORE fold (relative binding, original Ab1=1.00)” value (soluble human FcγRIIb) was 1.19 fold.

B8: Ab1H-P1514m/Ab1L (antibody, human IgG1, kappa, name in EU numbering)
heavy: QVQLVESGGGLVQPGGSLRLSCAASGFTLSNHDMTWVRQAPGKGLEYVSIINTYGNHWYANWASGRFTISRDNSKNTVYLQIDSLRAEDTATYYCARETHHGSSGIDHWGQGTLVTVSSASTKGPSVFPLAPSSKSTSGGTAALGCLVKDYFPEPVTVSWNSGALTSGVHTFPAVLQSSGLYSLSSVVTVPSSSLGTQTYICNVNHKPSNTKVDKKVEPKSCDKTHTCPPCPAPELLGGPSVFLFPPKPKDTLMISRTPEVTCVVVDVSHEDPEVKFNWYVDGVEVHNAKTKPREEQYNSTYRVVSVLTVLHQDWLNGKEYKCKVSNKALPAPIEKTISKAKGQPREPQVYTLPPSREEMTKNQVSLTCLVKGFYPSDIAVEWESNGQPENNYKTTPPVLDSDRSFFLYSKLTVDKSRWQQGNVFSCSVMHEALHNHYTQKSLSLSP
light: B3 light
notes: copies: 2 + 2
For B8, the “BIACORE fold (relative binding, original Ab1=1.00)” value (soluble human FcγRIIb) was 1.2 fold.

B9: Ab1H-P1483m/Ab1L (antibody, human IgG1, kappa, name in EU numbering)
heavy: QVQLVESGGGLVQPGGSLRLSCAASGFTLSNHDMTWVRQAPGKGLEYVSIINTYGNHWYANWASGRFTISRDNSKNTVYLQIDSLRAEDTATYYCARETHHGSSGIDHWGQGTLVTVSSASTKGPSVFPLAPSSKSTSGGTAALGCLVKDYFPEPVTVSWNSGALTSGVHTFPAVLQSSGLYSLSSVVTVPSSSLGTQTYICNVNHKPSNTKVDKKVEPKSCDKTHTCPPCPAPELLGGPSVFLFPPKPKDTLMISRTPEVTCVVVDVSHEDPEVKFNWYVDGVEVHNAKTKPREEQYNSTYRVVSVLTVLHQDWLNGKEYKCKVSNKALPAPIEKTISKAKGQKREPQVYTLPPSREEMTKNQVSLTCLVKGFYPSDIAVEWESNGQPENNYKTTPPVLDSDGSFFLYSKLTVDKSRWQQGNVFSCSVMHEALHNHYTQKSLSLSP
light: B3 light
In the case of B9, the “BIACORE fold (relative binding, original Ab1=1.00)” value (soluble human FcγRIIb) is reported as 1.02 fold.

B10: Ab1H-P1482m/Ab1L (antibody, human IgG1, kappa, name in EU numbering)
heavy: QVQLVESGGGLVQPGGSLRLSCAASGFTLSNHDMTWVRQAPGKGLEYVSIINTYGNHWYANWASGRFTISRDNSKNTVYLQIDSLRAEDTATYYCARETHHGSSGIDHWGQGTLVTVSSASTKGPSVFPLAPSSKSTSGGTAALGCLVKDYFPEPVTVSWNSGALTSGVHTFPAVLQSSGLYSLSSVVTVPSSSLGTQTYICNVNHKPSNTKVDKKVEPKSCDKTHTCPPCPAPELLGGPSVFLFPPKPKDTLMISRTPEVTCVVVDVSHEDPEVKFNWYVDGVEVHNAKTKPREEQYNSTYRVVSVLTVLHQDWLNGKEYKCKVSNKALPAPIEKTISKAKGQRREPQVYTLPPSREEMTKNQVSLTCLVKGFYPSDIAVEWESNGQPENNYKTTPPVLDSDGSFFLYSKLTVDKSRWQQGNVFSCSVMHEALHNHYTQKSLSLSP
light: B3 light
In the case of B10, the “BIACORE fold (relative binding, original Ab1=1.00)” value (soluble human FcγRIIb) is reported as 1.46 fold.
